Patent US8728472B2, “Antibodies that bind selectively to P25 and uses therefor” (The Board of Regents of the University of Texas System, priority 2009, dated 2014)
“Also recorded” adds a separate entry of the source.

Key:
p35 = target: T1, p35 (Mus musculus, UniProt P61809); assay: Immunoblotting and immunostaining for p35; assay type: binding; conditions: immunoblot
T1 construct: from tissue; host or cells: striatal homogenates of p25-GFP over-expressing mice
Text: (§1) Cdk5/p25 proteins (FIG. 2A) were co-expressed in Sf9 insect cells from a Baculovirus vector (pBAC4X-1) encoding the genes for the human proteins. […] The proteins were absorbed to a Ni-NTA column, eluted and further purified by FPLC S-sepharose HP column chromatography. Mice received intrasplenic injections of pure Cdk5/p25 conjugated to biodegradable microparticles to optimize antigen presentation. ELISA assays were used to initially screen mice sera for antibody production using pure Cdk5/p25 followed by Western blotting of the pure Cdk5/p25 and striatal cell lysates from a p25 (p25-GFP) over-expressing mouse line (FIG. 2B). When both assays yielded positive results, a hemisplenectomy was performed and B cells were fused with SP2/0-IL6 myeloma cells to make hybridomas. Hybridoma culture supernatants were screened by ELISA, immunoblotting of pure protein (FIG. 2A), and immunohistochemical staining of HEK293T cultured cells transfected with Cdk5, p35, Cdk5/p35, p25, Cdk5/p25, or negative control (blank) eukaryotic expression plasmids (FIG. 2C). Hybridoma lines producing antibodies selective for p25 were re-derived and screens were repeated.
(§2) Abs to p35, DARPP-32 (Nishi et al., 1997), GFAP, and p25 were used to stain rat coronal cryosections (20 μm) from control and stroked hemispheres. […] See Methods for further details.

p25 [1] = assay: Immunoblotting and immunostaining for p25 (p25-GFP lysates, transfected HEK293T cells, ischemic tissue); assay type: binding
Text: as §1, §2

p25 [2] = target: T2, p25 (Rattus norvegicus, UniProt P61810); assay: as above; assay type: binding; conditions: compared with commercial p35/p25 Ab
T2 construct: cleaves p35, thereby removing the first 100 amino acids to produce p25; expressed in transfected cells; host or cells: HEK293T; also purified Sf9 protein, p25-GFP transgenic mouse striatum, rat ischemic brain and neurons
Text: as §1, §2

PKA = assay: Effect of monoclonal antibody on PKA activity; assay type: biochemical; conditions: FIG. 4
Cdk5/p25 = target: T3, Cdk5/p25 (Homo sapiens, UniProt Q15078); assay: Inhibition of Cdk5/p25 kinase activity by monoclonal antibody; assay type: biochemical; conditions: FIG. 4
T3 construct: cleaves p35, thereby removing the first 100 amino acids to produce p25

[3] = listed as anti-p25 monoclonal antibody

T3 sequence (Q15078 99-307 limits assumed): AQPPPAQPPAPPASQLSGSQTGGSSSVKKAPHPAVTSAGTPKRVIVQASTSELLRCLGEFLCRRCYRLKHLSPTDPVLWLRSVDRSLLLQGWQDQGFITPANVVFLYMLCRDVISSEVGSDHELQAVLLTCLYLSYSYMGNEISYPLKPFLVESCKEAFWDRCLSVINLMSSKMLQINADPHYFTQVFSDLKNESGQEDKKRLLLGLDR
T2 sequence (P61810 99-307): as the sequence (Q15078 99-307 limits assumed) above, with G23V, V35I counted along it
T1 sequence (P61809 whole entry): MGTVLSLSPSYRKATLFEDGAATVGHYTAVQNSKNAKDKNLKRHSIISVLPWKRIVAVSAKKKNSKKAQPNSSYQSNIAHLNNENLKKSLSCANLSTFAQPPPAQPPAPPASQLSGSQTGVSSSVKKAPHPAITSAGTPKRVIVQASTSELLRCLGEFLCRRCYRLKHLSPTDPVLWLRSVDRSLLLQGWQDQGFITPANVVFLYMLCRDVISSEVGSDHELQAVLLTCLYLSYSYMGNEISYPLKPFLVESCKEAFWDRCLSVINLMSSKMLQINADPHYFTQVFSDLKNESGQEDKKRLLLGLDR

B1: 1C4: monoclonal antibody binding p25 but not p35, produced by hybridoma cell line 1C4 (ATCC PTA-8555) (antibody, V domains shown)
VH: QIQLEESGPELRKPGETVRISCKASGYTFTTAGMQWVQKMPGTGLKWIGWINTHSGVPKYAGEFTGRFDFSLETSASTAYLQIVNLKNEDTATYFCARYGKFGEMDYWGQGTSVTVSS
VL: IVMTQSPASLAVSLGQRATISCRSSETVDSDGNSFMHWYQQKPGQSPKLLLYLASTLESGVPARFSGSGSRTDFTLTIDPVEADDAATYYCHQNNEDPTFGGGTKLEIKR
p35
  reactivity with p35: does not react with p35 at all
p25 [1]; immunoblot of lysates from GFP-p25 over-expressing mice, focal ischemia in brain slices and cultured neurons, listed as anti-p25 monoclonal antibody
  detection of p25: detects transgenic p25-GFP; also recorded: strongly detects p25 generated in response to focal ischemia
p25 [1]; transfected cells, p25 vs p35 expression vector
  staining of cells transfected with expression vectors: only stains cells transfected with an expression vector for p25 but not p35
p25 [2]
  sensitivity of detection of p25 generated by MCAO: greater sensitivity than a commercial p35/p25 Ab
PKA
  effect on PKA activity: no effect on PKA
PKA; [3]
  effect on PKA activity: little or no effect on PKA activity
Cdk5/p25
  inhibition of Cdk5/p25 activity: almost completely inhibits Cdk5 activity
Cdk5/p25; [3]
  inhibition of Cdk5/p25 activity: inhibits Cdk5/p25 activity
